Experimental data taken from patent US20120093805A1.

How the values were obtained:
[1] = molecular target: human sugar chain-deficient CD27 expressed on Lec8 cells (human) (UniProt P26842); experiment: flow cytometry (FCM) on CD27/Lec8-4 cells [A) (b]
[2] = molecular target: human CD27 with normal O-linked sugar chains expressed on CHO/DG44 cells (human) (UniProt P26842); experiment: flow cytometry (FCM) on CD27/DG44-4 cells [B) (b]
[3] = molecular target: cynomolgus CD27 (C-terminal His tag) with normal O-linked sugar chains expressed on CHO/DG44 cells (cynomolgus); experiment: flow cytometry (FCM) on cynomolgus CD27/DG44 cells; number printed beside the broken bar

Sequence of human sugar chain-deficient CD27 expressed on Lec8 cells (human) (P26842 20-260 H233R limits assumed): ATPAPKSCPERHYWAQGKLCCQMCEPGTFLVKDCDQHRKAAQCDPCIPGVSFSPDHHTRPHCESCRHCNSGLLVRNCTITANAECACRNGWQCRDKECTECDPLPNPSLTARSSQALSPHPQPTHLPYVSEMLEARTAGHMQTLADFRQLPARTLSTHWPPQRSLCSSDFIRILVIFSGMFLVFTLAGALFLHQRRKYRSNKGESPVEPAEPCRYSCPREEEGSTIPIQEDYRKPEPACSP
Sequence of human CD27 with normal O-linked sugar chains expressed on CHO/DG44 cells (human) (P26842 20-260 H233R limits assumed): as above

Anti-CD27 Antibody (O323)
EC50 (read off the curve) [1]: 0.1 µg/mL | EC50 (read off the curve) [2]: 0.1 µg/mL | Mean Fluorescence Intensity [3]: 133
